Several values for one entry are separate records, joined by “and”; a condition that tells them apart may be missing. Identical values can stand only once.
T1: recombinant human IL-27 (human, UniProt Q14213 21-229; Q8NEV9 29-243)
T1 construct: Bought from R&D Systems (Cat. 2526-IL); also called hIL-27; rhIL-27
T1 sequence 1: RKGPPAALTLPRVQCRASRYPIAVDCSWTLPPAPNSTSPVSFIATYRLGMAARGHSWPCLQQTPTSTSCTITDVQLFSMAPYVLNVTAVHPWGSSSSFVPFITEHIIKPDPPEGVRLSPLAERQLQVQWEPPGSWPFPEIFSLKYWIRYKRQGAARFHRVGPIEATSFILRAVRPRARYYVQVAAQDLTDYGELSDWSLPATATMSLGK
T1 sequence 2: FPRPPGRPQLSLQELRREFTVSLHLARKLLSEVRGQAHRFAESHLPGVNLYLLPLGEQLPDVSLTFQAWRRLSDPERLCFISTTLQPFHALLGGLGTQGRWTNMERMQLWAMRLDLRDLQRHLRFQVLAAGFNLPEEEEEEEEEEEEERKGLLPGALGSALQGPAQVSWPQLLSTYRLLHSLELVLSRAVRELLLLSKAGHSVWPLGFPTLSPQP


Key:
recombinant human IL-27 [1] = biological target: T1, recombinant human IL-27; assay: SPR, hIL-27 on CM5 chip, bivalent analyte model
Protocol: (§1) The antibodies were further characterized by surface plasmon resonance (SPR). Kinetic experiments were performed on a Biacore T200 (GE Healthcare, Uppsala, Sweden). All experiments were run at 25° C. with HBS-P+ running buffer (pH 7.4) (GE Healthcare, Little Chalfont, UK) using hIL-27 (R&D Systems, Abingdon, UK). Human IL-27 (hIL-27) antigen was captured on a CM5 chip to ˜16 RU. Immobilization was carried out at a protein concentration of 1 μg/mL in 10 mM acetate buffer pH 5.0. A three point, three-fold dilution range from 3.3 nM to 30 nM of antibody diluted in HBS-P+ buffer without regeneration between each concentration was used. The association phase for the three injections of increasing concentrations of antibody was monitored for 75 seconds each time and a single dissociation phase was measured for 250 seconds following the last injection of antibody. Regeneration of the hIL-27 surface was conducted using a single injection of 2M MgCl₂ for 120 s. Multiple repeats (n=4) of the chimeric antibody were performed throughout the assay to check the stability of the surface and analyte over the kinetic cycles.
(§2) Both 1:1 binding and bivalent analyte models were used to analyze the data due to the bivalent nature of the antibody. The results from the 1:1 binding model analysis are summarized in Table 4 and results from the bivalent analyte model are summarized in Table 5.

recombinant human IL-27 [2] = biological target: T1, recombinant human IL-27; assay: SPR (Biacore T200), hIL-27 on CM5 chip, single cycle, 1:1 model
Protocol: as §1, §2

recombinant human IL-27 [3] = biological target: T1, recombinant human IL-27; assay: SPR, hIL-27 on CM5 chip, bivalent analyte model (ka1)
Protocol: as §1, §2

recombinant human IL-27 [4] = biological target: T1, recombinant human IL-27; assay: SPR, hIL-27 on CM5 chip, bivalent analyte model (kd1)
Protocol: as §1, §2

recombinant human IL-27 [5] = biological target: T1, recombinant human IL-27; assay: column 'Affinity hIL-27 (M)', property (i); method not given, paragraph 885 names SPR (BIACORE 2000)

Row | Binder | ka2 (recombinant human IL-27 [1]) | kd2 (recombinant human IL-27 [1]) | Kd (recombinant human IL-27 [2]) | Relative KD to Ab7.1 (recombinant human IL-27 [2]) | koff (recombinant human IL-27 [2]) | kon (recombinant human IL-27 [2]) | kon (recombinant human IL-27 [3]) | koff (recombinant human IL-27 [4]) | Kd (recombinant human IL-27 [5])
1 | Ab7.1 (antibody, human IgG1, kappa, human IgG1/kappa chimera from HEK293 EBNA cells; also called chimeric Ab7.1 antibody; chimeric antibody) heavy: not shown light: DIQMTQSPASLSASVGETVTITCRASENIYSYLAWYQQKQGKSPQLLVYNAETLTEGVPSRFSGSGSGTQFSLKINSLQPEDFGNYYCQHHYGTPLTFGAGTKLDLKRTVAAPSVFIFPPSDEQLKSGTASVVCLLNNFYPREAKVQWKVDNALQSGNSQESVTEQDSKDSTYSLSSTLTLSKADYEKHKVYACEVTHQGLSSPVTKSFNRGEC | 0.021 1/RUs | 0.046 s⁻¹ | 1 nM | 1 | 0.0015 s⁻¹ | 1.4e+06 M⁻¹ s⁻¹ | 670000 M⁻¹ s⁻¹ | 0.0022 s⁻¹ | 
2 | SRF573 (antibody, V domains shown) VH: QVQLVQSGAEVKKPGSSVKVSCKASGGTFSSYAISWVRQAPGQGLEWMGGIIPIFGTANYAQKFQGRVTITADESTSTAYMELSSLRSEDTAVYYCARSYYSSRWHYYYYMDVWGKGTTVTVSS VL: DIQMTQSPSSVSASVGDRVTITCRASQGISSWLAWYQQKPGKAPKLLIYAASNLQSGVPSRFSGSGSGTDFTLTISSLQPEDFATYYCQQADDLPLTFGGGTKVEIKR |  |  |  |  |  |  |  |  | 0.74 nM
3 | SRF583 (antibody, V domains shown) VH: QLQLQESGPGLVKPSETLSLTCTVSGGSISSSSYYWGWIRQPPGKGLEWIGSISYSGSTYYNPSLKSRVTISVDTSKNQFSLKLSSVTAADTAVYYCAREEYSFSYLDYWGQGTTVTVSS VL: DIQMTQSPSSVSASVGDRVTITCRASQGISSWLAWYQQKPGKAPKLLIYAASNLQSGVPSRFSGSGSGTDFTLTISSLQPEDFATYYCQQALLFPPTFGGGTKVEIKR |  |  |  |  |  |  |  |  | 1.98 nM
4 | SRF541 (antibody, V domains shown) VH: QVQLQESGPGLVKPSETLSLTCTVSGGSISSYYWSWIRQPPGKGLEWIGSIYYSGSTNYNPSLKSRVTISVDTSKNQFSLKLSSVTAADTAVYYCAREVDRDDVAFDIWGQGTMVTVSS VL: not shown |  |  |  |  |  |  |  |  | 94.4 nM
5 | Ab7.2 (antibody, human IgG1, kappa, V domains shown, human IgG1/kappa) VH: EVKLVESGGGLVQPGGSLKLFCAASGFTFTSYSMSWVRQTPEKRLEWVAYISYDGGSAYYPDTVKGRFSISRDNAKKTLYLQMSSLKSEDTAMYYCARHGDYDDDDAMDYWGQGTSVTVSS VL: DIQMTQSPSSLSASVGDRVTITCRASENIYSYLAWYQQKQGKAPKLLVYNAETLTEGVPSRFSGSGSGTDFTLTISSLQPEDFANYYCQHHYGTPLTFGQGTKLDIKR | 0.035 1/RUs | 0.087 s⁻¹ | 1.2 nM | 1.2 | 0.0018 s⁻¹ | 1.5e+06 M⁻¹ s⁻¹ | 700000 M⁻¹ s⁻¹ | 0.0027 s⁻¹ | 
6 | Ab7.17 (antibody, human IgG1, kappa, V domains shown, human IgG1/kappa) VH: EVQLVESGGGLVQPGGSLRLSCAASGFTFTSYSMSWVRQAPGKGLEWVAYISYDGGSAYYPDTVKGRFTISRDNSKNTLYLQMNSLRAEDTAVYYCARHGDYDDDDAMDYWGQGTLVTVSS VL: DIQMTQSPSSLSASVGDRVTITCRASENIYSYLAWYQQKPGKAPKLLVYNAETLTEGVPSRFSGSGSGTDFTLTISSLQPEDFANYYCQHHYGTPLTFGQGTKLEIKR | 0.039 1/RUs | 0.09 s⁻¹ | 1.5 nM | 1.5 | 0.0019 s⁻¹ | 1.3e+06 M⁻¹ s⁻¹ | 580000 M⁻¹ s⁻¹ | 0.0029 s⁻¹ | 
7 | Ab7.3 (antibody, human IgG1, kappa, V domains shown, human IgG1/kappa) VH: EVKLVESGGGLVQPGGSLRLSCAASGFTFTSYSMSWVRQAPGKGLEWVAYISYDGGSAYYPDTVKGRFTISRDNSKKTLYLQMSSLKSEDTAMYYCARHGDYDDDDAMDYWGQGTSVTVSS VL: DIQMTQSPASLSASVGETVTITCRASENIYSYLAWYQQKQGKSPQLLVYNAETLTEGVPSRFSGSGSGTQFSLKINSLQPEDFGNYYCQHHYGTPLTFGAGTKLDLKR | 0.029 1/RUs | 0.063 s⁻¹ | 0.96 nM | 0.9 | 0.0015 s⁻¹ | 1.5e+06 M⁻¹ s⁻¹ | 750000 M⁻¹ s⁻¹ | 0.0022 s⁻¹ | 
8 | Ab7.4 (antibody, human IgG1, kappa, V domains shown, human IgG1/kappa) VH: EVKLVESGGGLVQPGGSLRLSCAASGFTFTSYSMSWVRQAPGKGLEWVAYISYDGGSAYYPDTVKGRFTISRDNSKKTLYLQMSSLKSEDTAMYYCARHGDYDDDDAMDYWGQGTSVTVSS VL: DIQMTQSPSSLSASVGDRVTITCRASENIYSYLAWYQQKQGKAPKLLVYNAETLTEGVPSRFSGSGSGTDFTLTISSLQPEDFANYYCQHHYGTPLTFGQGTKLDIKR |  |  | 1.2 nM and 1.3 nM | 1.2 | 0.0018 s⁻¹ | 1.5e+06 M⁻¹ s⁻¹ | 720000 M⁻¹ s⁻¹ and 710000 M⁻¹ s⁻¹ | 0.0026 s⁻¹ and 0.0025 s⁻¹ | 
9 | Ab7.12 (antibody, human IgG1, kappa, V domains shown, human IgG1/kappa) VH: EVKLVESGGGLVQPGGSLRLSCAASGFTFTSYSMSWVRQAPGKGLEWVAYISYDGGSAYYPDTVKGRFTISRDNSKKTLYLQMNSLRAEDTAVYYCARHGDYDDDDAMDYWGQGTLVTVSS VL: DIQMTQSPSSLSASVGDRVTITCRASENIYSYLAWYQQKQGKAPKLLVYNAETLTEGVPSRFSGSGSGTDFTLTISSLQPEDFANYYCQHHYGTPLTFGQGTKLDIKR | 0.11 1/RUs | 0.29 s⁻¹ | 1.2 nM | 1.2 | 0.0018 s⁻¹ | 1.5e+06 M⁻¹ s⁻¹ | 750000 M⁻¹ s⁻¹ | 0.0026 s⁻¹ | 
10 | Ab7.9 (antibody, human IgG1, kappa, V domains shown, human IgG1/kappa) VH: EVQLVESGGGLVQPGGSLRLSCAASGFTFTSYSMSWVRQAPGKGLEWVAYISYDGGSAYYPDTVKGRFTISRDNSKNTLYLQMSSLKSEDTAMYYCARHGDYDDDDAMDYWGQGTLVTVSS VL: DIQMTQSPSSLSASVGDRVTITCRASENIYSYLAWYQQKPGKAPKLLVYNAETLTEGVPSRFSGSGSGTDFTLTISSLQPEDFANYYCQHHYGTPLTFGQGTKLEIKR | 0.043 1/RUs | 0.11 s⁻¹ | 1.5 nM | 1.5 | 0.0019 s⁻¹ | 1.3e+06 M⁻¹ s⁻¹ | 590000 M⁻¹ s⁻¹ | 0.0028 s⁻¹ | 
11 | Ab7.5 (antibody, human IgG1, kappa, V domains shown, human IgG1/kappa) VH: EVKLVESGGGLVQPGGSLRLSCAASGFTFTSYSMSWVRQAPGKGLEWVAYISYDGGSAYYPDTVKGRFTISRDNSKKTLYLQMSSLKSEDTAMYYCARHGDYDDDDAMDYWGQGTSVTVSS VL: DIQMTQSPSSLSASVGDRVTITCRASENIYSYLAWYQQKPGKAPKLLVYNAETLTEGVPSRFSGSGSGTDFTLTISSLQPEDFANYYCQHHYGTPLTFGQGTKLEIKR | 0.028 1/RUs | 0.068 s⁻¹ | 1.2 nM | 1.2 | 0.0018 s⁻¹ | 1.5e+06 M⁻¹ s⁻¹ | 680000 M⁻¹ s⁻¹ | 0.0027 s⁻¹ | 
12 | Ab7.10 (antibody, human IgG1, kappa, V domains shown, human IgG1/kappa) VH: EVQLVESGGGLVQPGGSLRLSCAASGFTFTSYSMSWVRQAPGKGLEWVAYISYDGGSAYYPDTVKGRFTISRDNSKNTLYLQMSSLKSEDTAMYYCARHGDYDDDDAMDYWGQGTLVTVSS VL: DIQMTQSPSSLSASVGDRVTITCRASENIYSYLAWYQQKPGKAPKLLVYNAETLTEGVPSRFSGSGSGTDFTLTISSLQPEDFATYYCQHHYGTPLTFGQGTKLEIKR | 0.084 1/RUs | 0.2 s⁻¹ | 1.4 nM | 1.4 | 0.0018 s⁻¹ | 1.3e+06 M⁻¹ s⁻¹ | 600000 M⁻¹ s⁻¹ | 0.0025 s⁻¹ | 
13 | Ab7.8 (antibody, human IgG1, kappa, V domains shown, human IgG1/kappa) VH: EVQLVESGGGLVQPGGSLRLSCAASGFTFTSYSMSWVRQAPGKGLEWVAYISYDGGSAYYPDTVKGRFTISRDNSKNTLYLQMSSLKSEDTAMYYCARHGDYDDDDAMDYWGQGTLVTVSS VL: DIQMTQSPSSLSASVGDRVTITCRASENIYSYLAWYQQKQGKAPKLLVYNAETLTEGVPSRFSGSGSGTDFTLTISSLQPEDFANYYCQHHYGTPLTFGQGTKLDIKR | 0.064 1/RUs | 0.15 s⁻¹ | 1.5 nM | 1.4 | 0.0018 s⁻¹ | 1.3e+06 M⁻¹ s⁻¹ | 580000 M⁻¹ s⁻¹ | 0.0027 s⁻¹ | 
14 | SRF414 (antibody, V domains shown, also called SRF414-A; SRF414-B) VH: QVQLQQWGAGLLKPSETLSLTCAVYGGSFSRYYWSWIRQPPGKGLEWIGSIDYSGSTEYNPSLKSRVTISVDTSKNQFSLKLSSVTAADTAVYYCARDGVYYDSSDLGFDIWGQGTMVTVSS VL: not shown |  |  |  |  |  |  |  |  | 0.52 nM

Source: patent US20190382474A1 (SURFACE ONCOLOGY, published 2019)
